Experimental data reported in PMC3947452.

Target: Flag-tagged PKMζ (protein kinase M ζ) (human) (UniProt Q05513)
Experiment: co-IP

Chain of UniProt Q05513 (Q05513 184-592): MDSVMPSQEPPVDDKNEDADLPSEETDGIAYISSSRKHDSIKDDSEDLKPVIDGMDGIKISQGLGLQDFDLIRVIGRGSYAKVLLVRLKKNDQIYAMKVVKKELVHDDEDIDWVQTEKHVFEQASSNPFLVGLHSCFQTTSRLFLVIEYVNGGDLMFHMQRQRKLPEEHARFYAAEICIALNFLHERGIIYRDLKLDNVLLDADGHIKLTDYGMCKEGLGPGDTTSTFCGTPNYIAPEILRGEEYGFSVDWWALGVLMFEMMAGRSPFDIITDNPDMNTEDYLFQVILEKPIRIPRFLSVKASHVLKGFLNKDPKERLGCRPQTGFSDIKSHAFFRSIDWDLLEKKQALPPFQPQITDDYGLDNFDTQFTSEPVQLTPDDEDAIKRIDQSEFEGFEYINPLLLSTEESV

- IC50: 60 nM
Substance: synthetic biotin-labeled peptide containing the binding motif (KIBRA position 948-978)
